# Measurements taken from patent publication US20080009025A1, “PROTEIN KINASE REGULATION” (priority 1999, published 2008).
# B1: PIFtide (24 residue synthetic peptide encompassing the PDK1 binding site on PIF) (peptide)
# peptide: REPRILSEEEQEMFRDFDYIADWC
# Target: GST-PDK1[K115A], O15530
# Test: cell-based or functional assay
# Chain of GST-PDK1[K115A], O15530 (O15530 whole entry K115A): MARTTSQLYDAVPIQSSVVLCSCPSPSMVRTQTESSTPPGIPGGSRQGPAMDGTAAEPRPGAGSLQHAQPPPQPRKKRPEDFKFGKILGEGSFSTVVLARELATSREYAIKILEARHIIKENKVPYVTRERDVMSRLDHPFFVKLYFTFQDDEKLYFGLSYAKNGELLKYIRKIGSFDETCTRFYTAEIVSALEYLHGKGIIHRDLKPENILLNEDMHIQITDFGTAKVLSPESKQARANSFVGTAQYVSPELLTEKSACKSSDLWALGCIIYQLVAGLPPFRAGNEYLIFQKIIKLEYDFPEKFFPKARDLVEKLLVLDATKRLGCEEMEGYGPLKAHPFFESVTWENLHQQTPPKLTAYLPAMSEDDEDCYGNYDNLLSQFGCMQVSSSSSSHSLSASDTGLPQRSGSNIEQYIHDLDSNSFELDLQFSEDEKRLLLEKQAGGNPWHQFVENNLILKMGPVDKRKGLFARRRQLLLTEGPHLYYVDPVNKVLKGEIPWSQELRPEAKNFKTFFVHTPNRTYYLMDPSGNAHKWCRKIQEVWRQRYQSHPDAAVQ
binder,measurement,value
B1,inhibition by 2 µM PIFtide of the activation of S6K1-T2[T412E] and SGK1[T422D] by this PDK1 mutant,50%
same,inhibition by 35 µM PIFtide of the activation of S6K1-T2[T412E] and SGK1[T422D] by this PDK1 mutant,> 95%
